A word on the IC50: it is the concentration at which inhibition is half-maximal. Read a low IC50 as greater potency in that assay.

In this test the target is Keap1 Kelch domain, Q14145. Briefly: other TR-FRET. The following applies: modification not given.
Chain of Keap1 Kelch domain, Q14145 (Q14145 whole entry, the tested form may be a part): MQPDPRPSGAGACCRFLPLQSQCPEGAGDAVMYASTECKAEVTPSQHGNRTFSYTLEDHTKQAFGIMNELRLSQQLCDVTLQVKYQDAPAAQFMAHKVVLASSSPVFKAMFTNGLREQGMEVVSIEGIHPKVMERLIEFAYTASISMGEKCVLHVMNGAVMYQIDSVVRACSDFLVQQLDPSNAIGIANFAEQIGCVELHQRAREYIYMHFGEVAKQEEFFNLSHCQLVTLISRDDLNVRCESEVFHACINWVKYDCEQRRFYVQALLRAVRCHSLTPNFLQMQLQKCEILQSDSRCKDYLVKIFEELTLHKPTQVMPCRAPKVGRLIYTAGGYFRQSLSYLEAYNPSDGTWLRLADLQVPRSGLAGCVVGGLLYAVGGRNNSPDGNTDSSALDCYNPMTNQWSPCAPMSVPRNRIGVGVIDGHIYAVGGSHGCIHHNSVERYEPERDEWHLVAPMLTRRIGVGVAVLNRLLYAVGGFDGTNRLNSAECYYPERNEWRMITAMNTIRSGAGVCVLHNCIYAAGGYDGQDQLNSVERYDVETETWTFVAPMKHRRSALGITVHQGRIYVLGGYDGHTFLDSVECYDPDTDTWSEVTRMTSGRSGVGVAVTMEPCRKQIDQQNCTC

Consider DELEPLTGFRR [Peptide 1-7], for which the IC50 is 6.2 nM.
Next, RDELEPLTGFRRR [Peptide 1-9]: 14.7 nM.
The molecule DELEPLTGFRRR [Peptide 1-8] gave a half-maximal inhibitory concentration (IC50) of 40.4 nM.
Consider RRDELEPLTGFRR [Peptide 1-3], for which the 50% inhibitory concentration (IC50) was 38.8 nM.

The values are drawn from patent US20260374828.
